Two proteins from publication PMC3702382 (Biochemistry, 2013) can be followed below.

This data set concerns the molecule itself. The data set is described as follows: TOXCAT.

B1: FtsB transmembrane domain TOXCAT construct, Gln 16 to Asn (domain or fragment)
chain: NRASLALTLLLLAILVWLNYSLWFGILIN
B1: the “CAT activity, % of WT” value turned out to be 67%.

B2: FtsB transmembrane domain TOXCAT construct, Gln 16 to Met (domain or fragment)
chain: NRASLALTLLLLAILVWLMYSLWFGILIN
Consider B2, for which the “CAT activity, % of WT” value is 22 % of WT.
